Data: the DeepSol protein solubility set

Assay: soluble on expression in E. coli; label from the status in PepcDB or PDB records

| Sequence | soluble on expression in E. coli |
| --- | --- |
| MKPENKIPVLTRLSDEMTAVVNFQQPGLPPWPADGDIETQRQYYLLERRFWNADAPSMTTRTCAVPTPYGDVTTRLYSPQPTSQATLYYLHGGGFILGNLDTHDRIMRLLARYTGCTVIGIDYSLSPQARYPQAIEETVAVCSYFSQHADEYSLNVEKIGFAGDSAGAMLALASALWLRDKHIRCGNVIAILLWYGLYGLQDSVSRRLFGGAWDGLTREDLDMYEKAYLRNDEDRESPWYCLFNNDLTRDVPPCFIASAEFDPLIDDSRLLHQTLQAHQQPCEYKMYPGTLHAFLHYSRMMTIADDALQDGARFFMARMKTPR | not soluble |
| MKPGIVKFALNVWPPFWGAGIKILHISEDFRTVKVRLKLRWWNKNANRTQYGGSIFSLTDPIYSLMLMGILREEYYVWDKEASINFIKPGQSDLFAEFEITDGMLDEIYQMTRNGEKCFPEFITHVKDKQGNVVSEVQRKLYVRKLEHHHHHH | soluble |
| MKPRDINKLIASKIFGYEIKDDNIIKDGRYRLGIPLYSQNIESAWQVVEKLEYDVKVTKTDLKPKYQVHVFVPGGVKMVFAETAPMAICKGALASVDIELQD | soluble |
| MKQADELRFNEDGLIPAIVQDAASKEVLTLAYMNKESYEKTLETKETWFYSRSRQALWHKGETSGNTQAVKGIRYDCDQDALLVLVEPSGPACHTGSYSCFTKEQTEEQAADRFGIMNELERVIAERQAEMPEGAYTTYLFREGVDKILKKVGEEASEVIIAAKNRDHEELKWEAADLLYHLLVLLREQSLPLDDVLDVLKKRHSEIEELEHHHHHH | not soluble |
| MKQITGVYTAPRPHWVGDGFPVRSLFSYQSHAQQLSPFLLLDYAGPHTFTPGNEKRGVGEHPHRGFETVTIVYSGEVEHRDSTGRGGVIGPGDVQWMTAGAGILHEEFHSDAFTRRGGELEMVQLWVNLPMKDKMTTPGYQSITHDVIPTVTLPDNAGVVRVIAGRYEETKGPAHTFSPLNVWDMRLQRNRQLTLAQPEGWSTALVVLKGNITVNGTTPVNEAQLVVLSQQGKTLHLEASSDASVLLLSGEPLNEPIVGYGPFVMNTKQEIAEAVRDFNSGRFGQI | not soluble |
| MKQRILIVGAGFAGMWSALSAVRQLDRQGRDDVEVAVLAPQPELRIRPRFYEPDVQRMAAPLGELFAAVGVRFVQGSAQRIDVAGKRVEYRDAEGTLAQLDYDRLVLAAGSGVWRPASVAGIDAAFDVDQLEDALRLEAHLHALRDLPDSPARNTVVVAGGGFTGIETATEMPARLRAILGEKAALRVIVVDRGAAIGASMGADLSGLIAEASAELGVEWCLGRSVAAVDAEGVTLDDGQRIEAKTVVWTVGVRASTLTGQIPGERDAQGRLHVDRNLKVLGLDDVYATGDVARAATDDLGNHALMTCQHAIALGRSAGNNVAADLLGVEPIPYSQVKYVTCLDLGGWGAVFTEGWDRQVRFVREEGKKIKTEINGVWIYPPAADRAVALAAADPLIPVVALEHHHHHH | soluble |
| MKRFNDFSKMKAFKDAQEHGKNRYKDVGCLDNNRVKLGGAWPHEYIHANYVSTPTNPKRFICTQAPLEKTCADFWFMCLQDRVETIFMLCNYKEKGAKKCHEYLPTEDNKDTMSFKEKGQKVTVKFESSKAIKFRDNSAAKVTKTVLTVEGAGCDKLKVNHYHWIDWPDRGVPTADNAILELLEKARVSKGPIAVHCSAGIGRTGSVVMLEYVMDQLLAGQIIEDTDKIIQKIREQRNNSVQTDHQYLFVHQVMMNFFEKRGLLDEATSAIHKDFTDQYSKCVL | not soluble |
| MKRGKQTCKILKDIRRQIAEANDIEFITSECQYQGDCLGTCPKCEAEVRYLEQQLERKRMAGKAITILGISAGLVAMAPMTSCSSSPNKGTNQETISDSTNASVMFGEICPTPVEDTIPMVEKDTVNKQELPELPQEMGLIEITPISGDIITVKDSLSEKDSLTDVLEVAAVMPEFPGGARELMKFISANIRYPSMSQGGVCQGRAIVQFIVDKEGNIVQPKVVRGVDPYLDKEALRVVGLMPKWKPGELDDGTKVAVRFTIPVMFRLQ | not soluble |
| MKRIILSIVWGLLTGWAAVPCLWAQSRTGTADREIWVKTLVRLADPVLSNLANETLKKEMPYESLAPNRQRFSYLEAVGRTVCGIAPWLELGEDDTPEGQLRKKYIELTVKGISNAVNPSSPDYLIFGEPSQPLVDAAFLAEGLLRAPKQLWGNLSPAARKQVVTELKRSRVIKPNESNWLLFASIVEAALQEFTGECDTTRLNYGVRKFRDLWYKGDAQYGDGAEFHLDYYNSFVIHPMLTDVLVVMQKHRMPESEFLNVQQKRLGRYAEQLERFISPEGTYPVIGRSIVYRTGVFHALGQAALLHLLPQQIVPAQVRCGMTKVIENQFRSAANFDTKGWLKIGFSGNQVQMSESYINTGSTYLCLTGFLPLGLPADDPFWSAPPAEWTNLKAWSGKEMPADHSLLEHHHHHH | not soluble |
| MKRIVVKVGSHVISEENTLSFERLKNLVAFLAKLMEKYEVILVTSAAISAGHTKLDIDRKNLINKQVLAAIGQPFLISVYNELLAKFNKLGGQILLTGKDFDSRKATKHAKNAIDMMINLGILPIINENDATAIEEIVFGDNDSLSAYATHFFDADLLVILSDIDGFYDKNPSEFSDAKRLEKITHIKEEWLQATIKTGSEHGTGGIVTKLKAAKFLLEHNKKMFLASGFDLSVAKTFLLEDKQIGGTLFE | soluble |
| MKRKSKAGGASDKSKSPKLKKRRSVVLEPIHISPKYLEDKFKTEFKKGFEKSNGPFPHWQLRNFVDNSDNVVEKIEDELQNFEGWKRKENDLYSLYQSDDLKSINPVENPAVFSFRQFLYKEVKEWLQNVSGVELTEQVDCNGSCYARTDSLLPHNDLIETRRFAFVYYITSADWDSEVNGGDLQLFNHDKKLQPTSVAAQFSPLRNSFMLFEVSEKSWHRVAEMLSEEPRLSINGWFHSTRRIEPKKPAVEAIQRFVPEAACKLSKLISKEYLQKERQDEVQQTFADSSELNLSKFIFEEIHDNAYSELISNPSCFETVGPVSKRHVARLDEEKSADLQNTKRIIQCLKSKNFAKLAAKLTGVTVTGAQTSVKVSRVEHGTYWVLGDEDAEQSSTDGYCLDVHLFVQKTNWDDEAGGDLIYIEEGDTEELLRISPSPNAASIVFREPGVISFMKYANCKSSDPFFLFTVSFYNVQVVED | not soluble |
| MKRKTKIVSTIGPASESVDKLVQLMEAGMNVARLNFSHGDHEEHGRRIANIREAAKRTGRTVAILLDTKGPEIRTHNMENGAIELKEGSKLVISMSEVLGTPEKISVTYPSLIDDVSVGAKILLDDGLISLEVNAVDKQAGEIVTTVLNGGVLKNKKGVNVPGVKVNLPGITEKDRADILFGIRQGIDFIAASFVRRASDVLEIRELLEAHDALHIQIIAKIENEEGVANIDEILEAADGLMVARGDLGVEIPAEEVPLIQKLLIKKSNMLGKPVITATQMLDSMQRNPRPTRAEASDVANAIFDGTDAVMLSGETAAGQYPVEAVKTMHQIALRTEQALEHRDILSQRTKESQTTITDAIGQSVAHTALNLDVAAIVTPTVSGKTPQMVAKYRPKAPIIAVTSNEAVSRRLALVWGVYTKEAPHVNTTDEMLDVAVDAAVRSGLVKHGDLVVITAGVPVGETGSTNLMKVHVISDLLAKGQGIGRKSAFGKAVVAKTAEEARQKMVDGGILVTVSTDADMMPAIEKAAAIITEEGGLTSHAAVVGLSLGIPVIVGVENATTLFKDGQEITVDGGFGAVYRGHASVL | soluble |
| MKRLDKKEALDLLHHASLTELGEMAYKRKLELHPEKITTFVVDRNINYTNVCCIDCSFCAFYRHHKEDDAYILSFEEIGKKIEELEAIGGTQILFQGGVHPKLKIEWYEELVSWIKEHYPNITVHGFSAVEIAYIAKASKISITEVLKRLQAKGLFSIPGAGAEVLSDRVRDIIAPNKCDTATWLEVHRQAHKIGMKSTATMMFGTVENDEEIIDHFEHLRKLQDETGGFRAFILWSFQSDNTALIQKHPEIMKQSSNKYLRLLALVRLYLDNFKNLQSSWVTQGSLIGQLALKFGANDLGSTMMEENVVSAAGASYRMNQDEMIRLIRSLGENPAKRNTAYEILERFLEHHHHHH | not soluble |
| MKRPDYRTLQALDAVIRERGFERAAQKLCITQSAVSQRIKQLENMFGQPLLVRTVPPRPTEQGQKLLALLRQVELLEEEWLGDEQTGSTPLLLSLAVNADSLATWLLPALAPVLADSPIRLNLQVEDETRTQERLRRGEVVGAVSIQHQALPSCLVDKLGALDYLFVSSKPFAEKYFPNGVTRSALLKAPVVAFDHLDDMHQAFLQQNFDLPPGSVPCHIVNSSEAFVQLARQGTTCCMIPHLQIEKELASGELIDLTPGLFQRRMLYWHRFAPESRMMRKVTDALLDYGHKVLRQD | soluble |
